Test results from publication PMC4395007.

Target: BG505 SOSIP.664 gp140 trimer (HIV-1) (UniProt Q2N0S6)
Assay: negative-stain electron microscopy

Substance: CAP256-VRC26.09 Fab
- stoichiometry N (Fab per trimer): 1
